Measurements: the supplement of paper PMC12042874
± gives the uncertainty stated by the source.

Assay: amyloid nucleation score (Sup35N fusion, yeast selection) (log enrichment); library NNK1; higher = more nucleation; inactive = no reads after selection
Summary of the method: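 Nucleation score: DiMSum log enrichment of output over input reads, centred on the mode score of non-aggregating sequences. Only sequences with at least 100 input reads were kept. Reads came from Illumina sequencing of plasmid inserts before and after 7 days of growth at 30°C without adenine and uracil, in psi-negative yeast expressing Sup35N fused to peptides of 20 random codons after 24 hours of induction with 100 μM copper sulfate.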
Substance NSEKLPMHPRGHAGQAWVQS has an amyloid nucleation score of 0.153 ± 0.45. Substance SLKCSNGR has an amyloid nucleation score of 0.49 ± 0.3. Work on SDNYVKAYVRVRRVMTKGGS yielded an amyloid nucleation score of -0.579 ± 0.58. In the case of FYGQRPKMLCPTRAEDLTKA, the amyloid nucleation score is reported as -0.269 ± 0.88. Substance ATRSMEAIIMRELWYIDPVY has an amyloid nucleation score of 0.831 ± 0.87. Work on FTAVK yielded an amyloid nucleation score of -0.188 ± 0.46. Work on KKFRVGVDLSRCTLGLENYK yielded an amyloid nucleation score of 4.3 ± 0.059. Substance NIEIRVCSRIVGHGLKFPKP has an amyloid nucleation score of 3.37 ± 0.17. For IKTAFMVMNNGKDVMSRSWG, the amyloid nucleation score was 0.402 ± 0.4. NSRWSIFFASMCDIRLWCVV showed an amyloid nucleation score of 0.755 ± 0.84. With CDNRRNFSSWVVDISKYITI the amyloid nucleation score was -0.946 ± 0.57. In the case of NPSNKCLSEPWQDHLLGAWR, the amyloid nucleation score is reported as 0.758 ± 0.67. SIQLGSFWSGCEICCDYPPA showed an amyloid nucleation score of -0.805 ± 0.67. In the case of QSSYVLCHFILE, the amyloid nucleation score is reported as -0.219 ± 1.2. Work on LVMFEIKLMRFNFTMRSVRR yielded an amyloid nucleation score of 2.91 ± 0.13. For GGCRIYLSSRM, the amyloid nucleation score was -0.583 ± 0.46. For YLQGENNWRVVGQRLSTSPA, the amyloid nucleation score was 0.03 ± 0.4. For RALLMTMKFNKMGSFNIESN, the amyloid nucleation score was 1.77 ± 0.2. Substance VCISWLRDTGADC has an amyloid nucleation score of 2.12 ± 0.23. YSAIRTKFFAA gave an amyloid nucleation score of 0.616 ± 1.1. For SGPRRQIDAIMFRGL, the amyloid nucleation score was -0.086 ± 1.2. In the case of TSWFSYRLANCAFHSQGFSR, the amyloid nucleation score is reported as 0.366 ± 0.38. Substance AFVTSRPYWGNSVVEAHLVG has an amyloid nucleation score of 1.69 ± 0.19. Substance SEKGCYYIGSLTGR has an amyloid nucleation score of 0.184 ± 1.2. Substance RNGCKFTKLFETVRFKEEGF has an amyloid nucleation score of -1.03 ± 0.48. For ADDVCSCQGFLYRDVFCATD, the amyloid nucleation score was 0.531 ± 0.93. In the case of ASVAHLCGQLTVDTGFRITG, the amyloid nucleation score is reported as 0.138 ± 0.33. For WWFRK, the amyloid nucleation score was 0.654 ± 1.1. Substance CLLRTRFWR has an amyloid nucleation score of 0.364 ± 0.56. GLNALSFNQV gave an amyloid nucleation score of -0.383 ± 0.48. LMGNEL gave an amyloid nucleation score of -0.396 ± 0.4. With SPSYQRCLQMLEKIWKDLNH the amyloid nucleation score was 0.497 ± 0.31. With YLGSGCRFETSYLDATFPVS the amyloid nucleation score was 0.387 ± 1. With LKHDRSNR the amyloid nucleation score was 0.345 ± 1.2. Substance LRTARNMGYICSIVSFNNLN has an amyloid nucleation score of 5.13 ± 0.055. In the case of HREMMWQGKRV, the amyloid nucleation score is reported as “inactive”. Substance YRRWKPIGVMSSSWLICVES has an amyloid nucleation score of 0.603 ± 0.43. TNVYESSVSFVMMGS showed an amyloid nucleation score of 0.364 ± 0.26. With QGRTRSYY the amyloid nucleation score was -0.301 ± 0.82. In the case of DREIAMVWHLSYIIFYFSES, the amyloid nucleation score is reported as -0.993 ± 0.33. LGTLMSPPTRTDFMHPRYRV gave an amyloid nucleation score of 1.51 ± 0.48. With VKTPSVRIKWDVISLSLPCA the amyloid nucleation score was 0.156 ± 0.53. With SKLTYLTMPSVGEIHFWNPM the amyloid nucleation score was 3.44 ± 0.18. In the case of NIASGFGFPYRGVLSC, the amyloid nucleation score is reported as 0.184 ± 1. In the case of GVCKTYSIDKAPI, the amyloid nucleation score is reported as 0.823 ± 0.51. Substance ELHTAEFNLNRM has an amyloid nucleation score of 1.04 ± 0.73. In the case of ILSDVDVCGYLRFMFWSMSD, the amyloid nucleation score is reported as 1.58 ± 0.49. RKGSMWFCRCLVRMRHRALP showed an amyloid nucleation score of -0.295 ± 0.76. With GPFSDVAGQKVRCGRLVATR the amyloid nucleation score was -0.212 ± 0.66. TAIIPPHFLASDSFRWSCAC gave an amyloid nucleation score of 0.008 ± 0.34. KVAVN showed an amyloid nucleation score of 0.453 ± 0.42. With ESLSCKFLCVYCCL the amyloid nucleation score was “inactive”. In the case of QLAAWSGFN, the amyloid nucleation score is reported as 0.522 ± 0.28. With SFNVKVAHGLIRFSPDICYQ the amyloid nucleation score was 4.47 ± 0.13. LAFMYVGKYARRGLTIYNLI showed an amyloid nucleation score of -0.335 ± 0.54. YNTRTRILWARVVNRVINLW showed an amyloid nucleation score of 4.95 ± 0.072. For LGPNW, the amyloid nucleation score was -0.356 ± 0.53. SLDEVARVLCP showed an amyloid nucleation score of -0.21 ± 0.58. KHYFCKMSV showed an amyloid nucleation score of -0.029 ± 0.37. For RYKNSIDSESVINRLLWDAT, the amyloid nucleation score was 0.431 ± 0.8. LEASSIISSRTPG gave an amyloid nucleation score of -0.93 ± 2.4. Work on RSWDRYMFGRNRCVDWGR yielded an amyloid nucleation score of 0.107 ± 0.9. PFVQRFCL showed an amyloid nucleation score of 0.486 ± 0.49. In the case of GGLGRYWTTHE, the amyloid nucleation score is reported as 0.436 ± 0.83. For YSYLV, the amyloid nucleation score was -0.716 ± 0.84. For HMSHMLLQIYLWLVFWSSGV, the amyloid nucleation score was 1.42 ± 0.66. NLNSMAFV showed an amyloid nucleation score of 0.662 ± 0.56. Substance RDIILGVLDRCSHCKNRALI has an amyloid nucleation score of 0.223 ± 0.62. YSLNTSTAWESAAAVTW showed an amyloid nucleation score of 0.196 ± 0.4. For TGTDVQGRSRLSDRAWGGYD, the amyloid nucleation score was -0.098 ± 0.36. With NRTIFVVRHTDFGYLA the amyloid nucleation score was 0.661 ± 0.75. SVSEWRQVILIIGVIVK showed an amyloid nucleation score of -0.278 ± 0.51.
